The source of these data is article PMC6669903 (Neuron, 2019).

The test relates to Tiam1/CaMKII complex. It is filed as cell-based. To be noted: bath application (AP5, KN-93) or cotransfection (CaMKIIN).

B1: CaMKIIN: endogenous CaMKII inhibitor protein, cotransfected (protein)
chain: MSEILPYGEDKMGRFGADPEGSDLSFSCRLQDTNSFFAGNQAKRPPKLGQIGRAKRVVIEDDRIDDVLKGMGEKPPSGV
Turning to B1, the “effect on Tiam1/CaMKII interaction after sLTP induction” value is “blocked”.
